Measurements as given in PMC9352680, “A comprehensive thermodynamic model for RNA binding by the Saccharomyces cerevisiae Pumilio protein PUF4”.
Residue numbers refer to the chain shown, from its start. In names and notes the source's numbering stands.

Target: T1, PUF4 RNA-binding domain (Saccharomyces cerevisiae, UniProt P25339 537-888)
T1 sequence: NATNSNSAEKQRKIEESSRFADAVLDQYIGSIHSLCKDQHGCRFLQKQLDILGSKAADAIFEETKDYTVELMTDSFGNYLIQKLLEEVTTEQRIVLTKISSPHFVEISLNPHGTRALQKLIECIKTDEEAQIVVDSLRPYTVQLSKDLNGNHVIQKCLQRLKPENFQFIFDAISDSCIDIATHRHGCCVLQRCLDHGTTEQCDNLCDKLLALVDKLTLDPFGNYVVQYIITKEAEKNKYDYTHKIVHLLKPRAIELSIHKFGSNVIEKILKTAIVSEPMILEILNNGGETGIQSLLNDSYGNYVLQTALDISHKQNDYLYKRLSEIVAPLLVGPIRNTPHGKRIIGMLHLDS
Experiment: Mg; RNA-MaP; 20 mM Na-HEPES pH 7.4, 30 mM KOAc, 0.75 mM MgCl2, 0.1% Tween-20, 5% glycerol, 0.1 mg/mL BSA, 2 mM DTT; 25 C; 0.0125-409.6 nM protein
Details: tags: N-His6-TEV cleaved; C-SNAP kept, Cy3B-labelled; label: tethered on chip by stalled RNA polymerase

B1: Ib_S2_P3E.1_K3.1_C3.1_H3.1_[A4T]_A3.1_[T5A]_F3.1_T3.1 (ssRNA)
RNA: UUUGAUUAAUAUGAUAUCGUUCUUUCUUGUUAAUAUUCUUUCUCGAUAUCAUAUUAAUCUUU
  Kd: 670 nM

B2: Ib_S2_P3E.1_K3.1_C3.1_H3.1_[A4C]_A3.1_[A6T]_F3.1_T3.1 (ssRNA)
RNA: B1 RNA with U31C, A32U, A33U
  Kd: 1200 nM

B3: Ib_S2_P3E.1_K3.1_C3.1_H3.1_[A4G]_A3.1_[A6T]_F3.1_T3.1 (ssRNA)
RNA: B1 RNA with U31G, A32U, A33U
  Kd: 37 nM

B4: Ib_S2_P3E.1_K3.1_C3.1_H3.1_[A4G]_A3.1_[A6C]_F3.1_T3.1 (ssRNA)
RNA: B1 RNA with U31G, A32U, A33C
  Kd: 107 nM

B5: Ib_S2_P3E.1_K3.1_C3.1_H3.1_[A4C]_A3.1_[A6G]_F3.1_T3.1 (ssRNA)
RNA: B1 RNA with U31C, A32U, A33G
  Kd: 40.8 nM

B6: Ie_S4_P5E.1_K5.1_C5.1_H5.1_A5.1_[+7CTCT]_F5.1_T5.1 (ssRNA)
RNA: UUUGACAACUGAUCGUUCUUUCUUGUAUUACUCUUUAUUCUUUCUCGAUCAGUUGUCUUU
  Kd: 65.1 nM

B7: Ie_S4_P5E.1_K5.1_C5.1_H5.1_[+3CCCTT]_A5.1_F5.1_T5.1 (ssRNA)
RNA: UUUGACAACUGAUCGUUCUUUCUUGUCCCUUAUUAUUAUUCUUUCUCGAUCAGUUGUCUUU
  Kd: 54.8 nM

B8: Ie_S4_P5E.1_K5.1_C5.1_H5.1_[+4TTCCT]_A5.1_F5.1_T5.1 (ssRNA)
RNA: B7 RNA with C27A, C28U, C29U, U30C, U31C, A32U
  Kd: 16.5 nM

B9: Ie_S4_P5E.1_K5.1_C5.1_H5.1_A5.1_[+5CTCTC]_F5.1_T5.1 (ssRNA)
RNA: B7 RNA with C27A, C28U, U31C, A32U, U33C
  Kd: 13.3 nM

B10: Ie_S4_P5E.1_K5.1_C5.1_H5.1_[+4CCCTT]_A5.1_F5.1_T5.1 (ssRNA)
RNA: B7 RNA with C27A, U30C, A32U
  Kd: 9.87 nM

B11: Ie_S4_P5E.1_K5.1_C5.1_H5.1_A5.1_[+6CTCTC]_F5.1_T5.1 (ssRNA)
RNA: B7 RNA with C27A, C28U, C29U, U30C, A32C, U34C
  Kd: 43.6 nM

B12: Ie_S4_P5E.1_K5.1_C5.1_H5.1_A5.1_[+5CCCTT]_F5.1_T5.1 (ssRNA)
RNA: B7 RNA with C27A, C28U, U30C, U31C, A32U
  Kd: 20.8 nM

B13: Ie_S4_P5E.1_K5.1_C5.1_H5.1_A5.1_[+5TCTCT]_F5.1_T5.1 (ssRNA)
RNA: B7 RNA with C27A, C28U, C29U, U30C, A32C
  Kd: 14.2 nM

B14: Ie_S4_P5E.1_K5.1_C5.1_H5.1_[+1CCCT]_A5.1_F5.1_T5.1 (ssRNA)
RNA: UUUGACAACUGAUCGUUCUUUCUUCCCUGUAUUAUUAUUCUUUCUCGAUCAGUUGUCUUU
  Kd: 1.21 nM

B15: Ie_S4_P5E.1_K5.1_C5.1_H5.1_[+3TCTC]_A5.1_F5.1_T5.1 (ssRNA)
RNA: B14 RNA with C25G, C26U, C27U, U28C, G29U, U30C
  Kd: 40.3 nM

B16: Ie_S4_P5E.1_K5.1_C5.1_H5.1_[+4CCTC]_A5.1_F5.1_T5.1 (ssRNA)
RNA: B6 RNA with U28C, U29C, A30U, C33U, U34A
  Kd: 7.54 nM

B17: Ie_S4_P5E.1_K5.1_C5.1_H5.1_A5.1_[+6TTCC]_F5.1_T5.1 (ssRNA)
RNA: B6 RNA with A30U, C31U, U32C, U34A
  Kd: 19.2 nM

B18: Ie_S4_P5E.1_K5.1_C5.1_H5.1_[+3TTCC]_A5.1_F5.1_T5.1 (ssRNA)
RNA: B14 RNA with C25G, C26U, C27U, G29C, U30C
  Kd: 44.8 nM

B19: Ie_S4_P5E.1_K5.1_C5.1_H5.1_[+4TTCC]_A5.1_F5.1_T5.1 (ssRNA)
RNA: B6 RNA with A30C, C33U, U34A
  Kd: 9.55 nM

B20: Ie_S4_P5E.1_K5.1_C5.1_H5.1_[+2CCTC]_A5.1_F5.1_T5.1 (ssRNA)
RNA: B14 RNA with C25G, G29C
  Kd: 863 nM

B21: Ie_S4_P5E.1_K5.1_C5.1_H5.1_[+4CCCT]_A5.1_F5.1_T5.1 (ssRNA)
RNA: B6 RNA with U28C, U29C, A30C, C31U, C33U, U34A
  Kd: 6.05 nM

B22: Ie_S4_P5E.1_K5.1_C5.1_H5.1_[+2TTCC]_A5.1_F5.1_T5.1 (ssRNA)
RNA: B14 RNA with C25G, C26U, C27U, U28C, G29C
  Kd: 26.4 nM

B23: Ie_S4_P5E.1_K5.1_C5.1_H5.1_[+3CTCT]_A5.1_F5.1_T5.1 (ssRNA)
RNA: B14 RNA with C25G, C26U, G29C
  Kd: 56.3 nM

B24: Ie_S4_P5E.1_K5.1_C5.1_H5.1_A5.1_[+5CCCT]_F5.1_T5.1 (ssRNA)
RNA: B6 RNA with U29C, A30C, C33U, U34A
  Kd: 16 nM

B25: Ie_S4_P5E.1_K5.1_C5.1_H5.1_[+3CT]_A5.1_F5.1_T5.1 (ssRNA)
RNA: UUUGACAACUGAUCGUUCUUUCUUGUCUAUUAUUAUUCUUUCUCGAUCAGUUGUCUUU
  Kd: 10.9 nM

B26: Ie_S4_P5E.1_K5.1_C5.1_H5.1_[+3TC]_A5.1_F5.1_T5.1 (ssRNA)
RNA: B25 RNA with C27U, U28C
  Kd: 2.68 nM

B27: Ie_S4_P5E.1_K5.1_C5.1_H5.1_[+4CT]_A5.1_F5.1_T5.1 (ssRNA)
RNA: B25 RNA with C27A, U28C, A29U
  Kd: 0.642 nM

B28: Ie_S4_P5E.1_K5.1_C5.1_H5.1_[+3TT]_A5.1_F5.1_T5.1 (ssRNA)
RNA: B25 RNA with C27U
  Kd: 8.89 nM

B29: Ie_S4_P5E.1_K5.1_C5.1_H5.1_[+4CC]_A5.1_F5.1_T5.1 (ssRNA)
RNA: B25 RNA with C27A, U28C, A29C
  Kd: 1.43 nM

B30: Ie_S4_P5E.1_K5.1_C5.1_H5.1_[+1CTT]_A5.1_F5.1_T5.1 (ssRNA)
RNA: UUUGACAACUGAUCGUUCUUUCUUCUUGUAUUAUUAUUCUUUCUCGAUCAGUUGUCUUU
  Kd: 1.38 nM

B31: Ie_S4_P5E.1_K5.1_C5.1_H5.1_A5.1_[+7CCT]_F5.1_T5.1 (ssRNA)
RNA: B30 RNA with C25G, U27A, G28U, U31C, U32C, A33U
  Kd: 66.5 nM

B32: Ie_S4_P5E.1_K5.1_C5.1_H5.1_[+3TCC]_A5.1_F5.1_T5.1 (ssRNA)
RNA: B30 RNA with C25G, G28C, U29C
  Kd: 9.83 nM

B33: Ie_S4_P5E.1_K5.1_C5.1_H5.1_A5.1_[+7TTT]_F5.1_T5.1 (ssRNA)
RNA: B30 RNA with C25G, U27A, G28U, A33U
  Kd: 12.5 nM

B34: Ie_S4_P5E.1_K5.1_C5.1_H5.1_A5.1_[+5TTT]_F5.1_T5.1 (ssRNA)
RNA: B30 RNA with C25G, U27A, G28U, A30U
  Kd: 2.85 nM

B35: Ie_S4_P5E.1_K5.1_C5.1_H5.1_A5.1_[+6CCC]_F5.1_T5.1 (ssRNA)
RNA: B30 RNA with C25G, U27A, G28U, A30C, U31C, U32C
  Kd: 60.8 nM

B36: Ie_S4_P5E.1_K5.1_C5.1_H5.1_[+3TTT]_A5.1_F5.1_T5.1 (ssRNA)
RNA: B30 RNA with C25G, G28U
  Kd: 15.6 nM

B37: Ie_S4_P5E.1_K5.1_C5.1_H5.1_[+4CTC]_A5.1_F5.1_T5.1 (ssRNA)
RNA: B30 RNA with C25G, U27A, G28C, A30C
  Kd: 2.91 nM

B38: Ie_S4_P5E.1_K5.1_C5.1_H5.1_A5.1_[+7CCC]_F5.1_T5.1 (ssRNA)
RNA: B30 RNA with C25G, U27A, G28U, U31C, U32C, A33C
  Kd: 85 nM

B39: Ie_S4_P5E.1_K5.1_C5.1_H5.1_[+3CCC]_A5.1_F5.1_T5.1 (ssRNA)
RNA: B30 RNA with C25G, U27C, G28C, U29C
  Kd: 27.8 nM

B40: Ie_S4_P5E.1_K5.1_C5.1_H5.1_A5.1_[+7TCT]_F5.1_T5.1 (ssRNA)
RNA: B30 RNA with C25G, U27A, G28U, U32C, A33U
  Kd: 24.9 nM

B41: Ie_S4_P5E.1_K5.1_C5.1_H5.1_[+4CTT]_A5.1_F5.1_T5.1 (ssRNA)
RNA: B30 RNA with C25G, U27A, G28C, A30U
  Kd: 1.26 nM

B42: Ie_S4_P5E.1_K5.1_C5.1_H5.1_[+4CCC]_A5.1_F5.1_T5.1 (ssRNA)
RNA: B30 RNA with C25G, U27A, G28C, U29C, A30C
  Kd: 3.18 nM

B43: Ie_S4_P5E.1_K5.1_C5.1_H5.1_[+2TCT]_A5.1_F5.1_T5.1 (ssRNA)
RNA: B30 RNA with C25G, U27C, G28U
  Kd: 15.3 nM

B44: Ie_S4_P5E.1_K5.1_C5.1_H5.1_[+2TCC]_A5.1_F5.1_T5.1 (ssRNA)
RNA: B30 RNA with C25G, U27C, G28C
  Kd: 18.4 nM

B45: Ie_S4_P5E.1_K5.1_C5.1_H5.1_[+3TCT]_A5.1_F5.1_T5.1 (ssRNA)
RNA: B30 RNA with C25G, G28C
  Kd: 8.87 nM

B46: Ie_S4_P5E.1_K5.1_C5.1_H5.1_[+4TCC]_A5.1_F5.1_T5.1 (ssRNA)
RNA: B30 RNA with C25G, U27A, G28U, U29C, A30C
  Kd: 6.26 nM

B47: Ie_S4_P5E.1_K5.1_C5.1_H5.1_A5.1_[+7CTT]_F5.1_T5.1 (ssRNA)
RNA: B30 RNA with C25G, U27A, G28U, U31C, A33U
  Kd: 26.8 nM

B48: Ie_S4_P5E.1_K5.1_C5.1_H5.1_A5.1_[+6TTC]_F5.1_T5.1 (ssRNA)
RNA: B30 RNA with C25G, U27A, G28U, A30U, U32C
  Kd: 32 nM

B49: Ie_S4_P5E.1_K5.1_C5.1_H5.1_[+3T]_A5.1_F5.1_T5.1 (ssRNA)
RNA: UUUGACAACUGAUCGUUCUUUCUUGUUAUUAUUAUUCUUUCUCGAUCAGUUGUCUUU
  Kd: 41.6 nM

B50: Ie_S4_P5E.1_K5.1_C5.1_H5.1_A5.1_[+6C]_F5.1_T5.1 (ssRNA)
RNA: B49 RNA with U27A, A28U, U30C
  Kd: 13.4 nM

B51: Ie_S4_P5E.1_K5.1_C5.1_H5.1_[+3C]_A5.1_F5.1_T5.1 (ssRNA)
RNA: B49 RNA with U27C
  Kd: 34.1 nM
